Consider 3 molecules from publication doi:10.1101/2023.07.25.550448 (bioRxiv, 2023).

“And” between values parts separate entries of the source, which are not always exact repeats. Equal values may be shown once. No end group written: not given here. *: point of attachment. Biotin = O=C1N[C@H]2[C@H](CS[C@H]2CCCCC(=O)*)N1

In experiment [1] the target is T1, His6-p97 WT (human, UniProt P55072 1-806). The experiment in a line: pull-down.
Experiment [2] deals with T1, His6-p97 WT. Briefly: SPR.
Experiment [3] deals with T1, His6-p97 WT. Briefly: mass photometry.

T1 sequence (P55072 whole entry): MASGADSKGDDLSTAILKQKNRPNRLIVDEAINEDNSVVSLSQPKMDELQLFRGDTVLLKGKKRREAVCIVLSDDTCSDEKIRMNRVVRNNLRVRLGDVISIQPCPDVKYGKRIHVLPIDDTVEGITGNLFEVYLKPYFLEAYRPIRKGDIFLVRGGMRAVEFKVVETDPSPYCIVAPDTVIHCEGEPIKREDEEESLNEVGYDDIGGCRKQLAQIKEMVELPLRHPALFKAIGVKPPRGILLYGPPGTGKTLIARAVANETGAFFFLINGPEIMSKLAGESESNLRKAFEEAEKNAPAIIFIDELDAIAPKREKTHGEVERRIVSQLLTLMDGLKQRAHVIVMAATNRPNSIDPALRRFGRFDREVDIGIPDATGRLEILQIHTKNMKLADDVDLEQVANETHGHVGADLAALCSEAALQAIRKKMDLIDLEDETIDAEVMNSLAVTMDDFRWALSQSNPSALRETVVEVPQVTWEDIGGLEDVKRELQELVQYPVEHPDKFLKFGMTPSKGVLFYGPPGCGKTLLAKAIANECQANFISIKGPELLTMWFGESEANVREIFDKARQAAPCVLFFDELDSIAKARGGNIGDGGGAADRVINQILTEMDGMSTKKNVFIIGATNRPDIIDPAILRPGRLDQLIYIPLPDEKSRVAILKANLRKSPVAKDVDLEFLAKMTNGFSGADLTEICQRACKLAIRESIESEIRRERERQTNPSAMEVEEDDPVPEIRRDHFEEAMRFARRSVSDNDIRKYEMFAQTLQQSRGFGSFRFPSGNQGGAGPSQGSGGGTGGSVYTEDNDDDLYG

Take Biotin-NLTSEELRKRREAYFEKQQQK [VBM peptide (ATXN3, aa275-295)]: in experiment [1], the binding result was “binds”.

B1: Strep-HA-VCF1 WT (natural protein)
chain: not shown
A word on the Kd: it is the free concentration of one partner at which half of the binding sites on the other are occupied at equilibrium, for simple one-to-one binding. High values mean a looser complex, low ones a tighter complex. Regarding B1, the Kd in experiment [2] is about 10 nM. In addition, in experiment [3], the “stoichiometry N” value is 2 VCF1 molecules per p97 hexamer and 3 VCF1 molecules per p97 hexamer.
Take Biotin-PTPDLEEKRAKLAEAAERRQKEAAS [VIM peptide (SVIP, aa14-39)]: the binding result in experiment [1] was “binds”.
